Experimental data reported in PMC9482650, “Quantitative fragmentomics allow affinity mapping of interactomes” (Nature Communications, 2022).

T1: PTPN13_1, Q12923
T1 sequence (Q12923 1088-1188, limits assumed, looked up): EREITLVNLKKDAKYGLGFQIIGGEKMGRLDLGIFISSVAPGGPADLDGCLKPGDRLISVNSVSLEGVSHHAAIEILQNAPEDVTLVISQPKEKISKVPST

T2: RHPN1, Q8TCX5
T2 sequence (Q8TCX5 508-602, limits assumed, looked up): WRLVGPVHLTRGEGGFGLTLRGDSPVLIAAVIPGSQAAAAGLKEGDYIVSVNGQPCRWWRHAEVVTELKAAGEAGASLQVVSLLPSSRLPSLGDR

T3: SNTG2, Q9NY99
T3 sequence (Q9NY99 68-166, limits assumed, looked up): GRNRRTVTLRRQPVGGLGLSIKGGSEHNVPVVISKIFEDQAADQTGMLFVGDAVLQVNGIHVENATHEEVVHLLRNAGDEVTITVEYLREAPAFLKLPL

T4: ARHGAP21, Q5T5U3
T4 sequence (Q5T5U3 45-169, limits assumed, looked up): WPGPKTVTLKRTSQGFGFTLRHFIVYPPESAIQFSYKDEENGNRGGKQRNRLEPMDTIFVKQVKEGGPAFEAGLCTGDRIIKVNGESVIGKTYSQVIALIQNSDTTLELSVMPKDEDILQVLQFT

T5: HTRA4, P83105
T5 sequence (P83105 378-476, limits assumed, looked up): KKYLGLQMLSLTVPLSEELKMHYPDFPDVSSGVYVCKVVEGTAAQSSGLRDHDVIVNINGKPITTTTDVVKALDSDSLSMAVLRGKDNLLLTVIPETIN

T6: PARD3B_1, Q8TEW8
T6 sequence (Q8TEW8 196-299, limits assumed, looked up): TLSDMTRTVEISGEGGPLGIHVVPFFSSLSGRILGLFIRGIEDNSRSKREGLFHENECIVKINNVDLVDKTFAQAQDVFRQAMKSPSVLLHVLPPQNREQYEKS

T7: TX1BP3, O14907
T7 sequence (O14907 10-122, limits assumed, looked up): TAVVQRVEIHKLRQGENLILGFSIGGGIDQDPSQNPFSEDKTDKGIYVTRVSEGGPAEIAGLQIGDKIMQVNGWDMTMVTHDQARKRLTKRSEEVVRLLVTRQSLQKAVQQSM

T8: LRRC7, Q96NW7
T8 sequence (Q96NW7 1440-1537, limits assumed, looked up): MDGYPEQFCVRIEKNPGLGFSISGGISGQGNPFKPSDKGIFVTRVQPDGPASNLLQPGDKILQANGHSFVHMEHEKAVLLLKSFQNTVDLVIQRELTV

T9: LNX2_3, Q8N448
T9 sequence (Q8N448 463-564, limits assumed, looked up): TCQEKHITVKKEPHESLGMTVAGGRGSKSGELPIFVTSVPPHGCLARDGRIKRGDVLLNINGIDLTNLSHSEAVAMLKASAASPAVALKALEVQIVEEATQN

T10: LNX2_2, Q8N448
T10 sequence (Q8N448 334-432, limits assumed, looked up): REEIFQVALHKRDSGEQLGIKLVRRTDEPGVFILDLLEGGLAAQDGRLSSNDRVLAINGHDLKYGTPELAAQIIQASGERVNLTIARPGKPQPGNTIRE

T11: APBA2_2, Q99767
T11 sequence (Q99767 654-744, limits assumed, looked up): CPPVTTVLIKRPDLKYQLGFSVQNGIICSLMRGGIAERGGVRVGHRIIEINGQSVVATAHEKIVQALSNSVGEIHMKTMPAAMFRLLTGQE

B1: SLC1A5, Q15758 (peptide)
chain: TVASEKESVM
B2: KCNT2, Q6UVM3 (peptide)
chain: GQDSREETQL
B3: VANGL1, Q8TAA9 (peptide)
chain: VLRLQSETSV
B4: KIR3DL3, Q8N743 (peptide)
chain: PKTPPTDTSV

Each binder was assayed against T1, PTPN13_1, Q12923 (assay: holdup assay). Details: plain residues with an end cap or a label only (N-terminal biotin on a linker: ttds).
Design: key: below the threshold = too weak to quantify, mostly under pKd 3.1 to 4
B1 was tested, and the pKd was “below the threshold”. B2 was tested, and the pKd was “below the threshold”. In the case of B3, the pKd is reported as “below the threshold”. For B4, the pKd was “below the threshold”.

What follows are binders tested against GRID2IP_1, A4D2P6 (assay: holdup assay). Details: plain residues with an end cap or a label only (N-terminal biotin on a linker: ttds).
GRID2IP_1, A4D2P6, sequence (A4D2P6 1-87): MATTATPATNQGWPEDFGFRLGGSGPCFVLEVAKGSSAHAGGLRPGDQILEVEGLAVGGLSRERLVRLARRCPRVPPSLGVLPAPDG
Design: key: below the threshold = too weak to quantify, mostly under pKd 3.1 to 4
For B1, the pKd was “below the threshold”. In the case of B2, the pKd is reported as “below the threshold”. B3 was tested, and the pKd was “below the threshold”. In the case of B4, the pKd is reported as “below the threshold”.

These binders were tested against HTRA2, O43464 (assay: holdup assay). Details: plain residues with an end cap or a label only (N-terminal biotin on a linker: ttds).
HTRA2, O43464, sequence (O43464 355-458): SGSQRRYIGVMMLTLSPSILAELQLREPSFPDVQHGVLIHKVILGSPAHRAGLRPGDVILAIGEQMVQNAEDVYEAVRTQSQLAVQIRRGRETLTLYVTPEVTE
Design: key: below the threshold = too weak to quantify, mostly under pKd 3.1 to 4
B1 was tested, and the pKd was “below the threshold”. B2 was tested, and the pKd was “below the threshold”. In the case of B3, the pKd is reported as “below the threshold”. B4 was tested, and the pKd was “below the threshold”.

What follows are binders tested against T2, RHPN1, Q8TCX5 (assay: holdup assay). Details: plain residues with an end cap or a label only (N-terminal biotin on a linker: ttds).
Design: key: below the threshold = too weak to quantify, mostly under pKd 3.1 to 4
For B1, the pKd was 3.67. For B2, the pKd was 5. In the case of B3, the pKd is reported as 4.37. For B4, the pKd was “below the threshold”.

What follows are binders tested against FRMPD2_3, Q68DX3 (assay: holdup assay). Details: plain residues with an end cap or a label only (N-terminal biotin on a linker: ttds).
FRMPD2_3, Q68DX3, sequence (Q68DX3 1073-1166): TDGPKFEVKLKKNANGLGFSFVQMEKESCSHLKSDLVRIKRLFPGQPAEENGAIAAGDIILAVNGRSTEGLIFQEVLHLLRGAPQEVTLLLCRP
Design: key: below the threshold = too weak to quantify, mostly under pKd 3.1 to 4
For B1, the pKd was “below the threshold”. In the case of B2, the pKd is reported as “below the threshold”. B3 was tested, and the pKd was “below the threshold”. With B4 the pKd was “below the threshold”.

These binders were tested against T3, SNTG2, Q9NY99 (assay: holdup assay). Details: plain residues with an end cap or a label only (N-terminal biotin on a linker: ttds).
Design: key: below the threshold = too weak to quantify, mostly under pKd 3.1 to 4
Binder B1 has a pKd of 3.75. Work on B2 yielded a pKd of 4.39. B3 showed a pKd of 4.53. In the case of B4, the pKd is reported as 3.73.

Each binder was assayed against T4, ARHGAP21, Q5T5U3 (assay: holdup assay). Details: plain residues with an end cap or a label only (N-terminal biotin on a linker: ttds).
Design: key: below the threshold = too weak to quantify, mostly under pKd 3.1 to 4
In the case of B1, the pKd is reported as “below the threshold”. In the case of B2, the pKd is reported as 3.68. For B3, the pKd was “below the threshold”. In the case of B4, the pKd is reported as 3.61.

The binders below were run against MAST1, Q9Y2H9 (assay: holdup assay). Details: plain residues with an end cap or a label only (N-terminal biotin on a linker: ttds).
MAST1, Q9Y2H9, sequence (Q9Y2H9 962-1065): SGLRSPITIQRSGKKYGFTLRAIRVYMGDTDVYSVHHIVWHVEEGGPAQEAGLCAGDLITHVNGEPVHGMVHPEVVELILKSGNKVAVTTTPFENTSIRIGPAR
Design: key: below the threshold = too weak to quantify, mostly under pKd 3.1 to 4
Work on B1 yielded a pKd of 4.2. For B2, the pKd was 5.14. B3 was tested, and the pKd was “below the threshold”. In the case of B4, the pKd is reported as “below the threshold”.

Each binder was assayed against T5, HTRA4, P83105 (assay: holdup assay). Details: plain residues with an end cap or a label only (N-terminal biotin on a linker: ttds).
Design: key: below the threshold = too weak to quantify, mostly under pKd 3.1 to 4
B1 was tested, and the pKd was “below the threshold”. With B2 the pKd was “below the threshold”. B3 was tested, and the pKd was “below the threshold”. B4 was tested, and the pKd was “below the threshold”.

The binders below were run against TJP1_3, Q07157 (assay: holdup assay). Details: plain residues with an end cap or a label only (N-terminal biotin on a linker: ttds).
TJP1_3, Q07157, sequence (Q07157 416-512): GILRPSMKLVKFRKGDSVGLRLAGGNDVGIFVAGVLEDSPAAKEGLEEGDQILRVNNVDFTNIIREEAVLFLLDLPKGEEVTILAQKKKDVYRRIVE
Design: key: below the threshold = too weak to quantify, mostly under pKd 3.1 to 4
With B1 the pKd was “below the threshold”. With B2 the pKd was “below the threshold”. B3 was tested, and the pKd was “below the threshold”. With B4 the pKd was “below the threshold”.

The binders below were run against T6, PARD3B_1, Q8TEW8 (assay: holdup assay). Details: plain residues with an end cap or a label only (N-terminal biotin on a linker: ttds).
Design: key: below the threshold = too weak to quantify, mostly under pKd 3.1 to 4
In the case of B1, the pKd is reported as 3.61. With B2 the pKd was “below the threshold”. With B3 the pKd was “below the threshold”. For B4, the pKd was “below the threshold”.

These binders were tested against NHERF4_2, Q86UT5 (assay: holdup assay). Details: plain residues with an end cap or a label only (N-terminal biotin on a linker: ttds).
NHERF4_2, Q86UT5, sequence (Q86UT5 220-308): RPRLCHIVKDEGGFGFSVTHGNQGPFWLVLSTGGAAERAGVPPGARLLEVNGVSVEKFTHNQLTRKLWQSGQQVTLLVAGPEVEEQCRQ
Design: key: below the threshold = too weak to quantify, mostly under pKd 3.1 to 4
For B1, the pKd was “below the threshold”. In the case of B2, the pKd is reported as “below the threshold”. In the case of B3, the pKd is reported as “below the threshold”. For B4, the pKd was “below the threshold”.

Each binder was assayed against LNX1_1, Q8TBB1 (assay: holdup assay). Details: plain residues with an end cap or a label only (N-terminal biotin on a linker: ttds).
LNX1_1, Q8TBB1, sequence (Q8TBB1 261-371): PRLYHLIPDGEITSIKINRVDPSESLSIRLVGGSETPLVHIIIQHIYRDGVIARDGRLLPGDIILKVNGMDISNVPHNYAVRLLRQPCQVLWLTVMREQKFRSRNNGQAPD
Design: key: below the threshold = too weak to quantify, mostly under pKd 3.1 to 4
In the case of B1, the pKd is reported as “below the threshold”. B2 was tested, and the pKd was “below the threshold”. For B3, the pKd was “below the threshold”. With B4 the pKd was “below the threshold”.

What follows are binders tested against T7, TX1BP3, O14907 (assay: holdup assay). Details: plain residues with an end cap or a label only (N-terminal biotin on a linker: ttds).
Design: key: below the threshold = too weak to quantify, mostly under pKd 3.1 to 4
B1 was tested, and the pKd was 3.69. B2 showed a pKd of 3.83. For B3, the pKd was 4.21. With B4 the pKd was 3.67.

What follows are binders tested against T8, LRRC7, Q96NW7 (assay: holdup assay). Details: plain residues with an end cap or a label only (N-terminal biotin on a linker: ttds).
Design: key: below the threshold = too weak to quantify, mostly under pKd 3.1 to 4
For B1, the pKd was “below the threshold”. B2 was tested, and the pKd was “below the threshold”. For B3, the pKd was “below the threshold”. In the case of B4, the pKd is reported as “below the threshold”.

These binders were tested against PDLIM1, O00151 (assay: holdup assay). Details: plain residues with an end cap or a label only (N-terminal biotin on a linker: ttds).
PDLIM1, O00151, sequence (O00151 1-87): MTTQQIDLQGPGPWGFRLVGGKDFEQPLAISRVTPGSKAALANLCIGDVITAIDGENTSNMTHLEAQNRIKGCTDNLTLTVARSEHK
Design: key: below the threshold = too weak to quantify, mostly under pKd 3.1 to 4
With B1 the pKd was “below the threshold”. With B2 the pKd was “below the threshold”. B3 was tested, and the pKd was “below the threshold”. With B4 the pKd was “below the threshold”.

The binders below were run against CASK, O14936 (assay: holdup assay). Details: plain residues with an end cap or a label only (N-terminal biotin on a linker: ttds).
CASK, O14936, sequence (O14936 487-570): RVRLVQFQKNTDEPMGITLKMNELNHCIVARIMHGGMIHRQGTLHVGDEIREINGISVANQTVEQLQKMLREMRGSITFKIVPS
Design: key: below the threshold = too weak to quantify, mostly under pKd 3.1 to 4
B1 was tested, and the pKd was “below the threshold”. In the case of B2, the pKd is reported as “below the threshold”. In the case of B3, the pKd is reported as “below the threshold”. With B4 the pKd was “below the threshold”.

The binders below were run against IL16_3, Q14005 (assay: holdup assay). Details: plain residues with an end cap or a label only (N-terminal biotin on a linker: ttds).
IL16_3, Q14005, sequence (Q14005 1107-1207): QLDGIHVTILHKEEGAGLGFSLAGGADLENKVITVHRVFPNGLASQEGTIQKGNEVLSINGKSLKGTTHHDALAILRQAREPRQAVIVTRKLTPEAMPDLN
Design: key: below the threshold = too weak to quantify, mostly under pKd 3.1 to 4
With B1 the pKd was “below the threshold”. In the case of B2, the pKd is reported as “below the threshold”. With B3 the pKd was “below the threshold”. In the case of B4, the pKd is reported as “below the threshold”.

The binders below were run against SNX27, Q96L92 (assay: holdup assay). Details: plain residues with an end cap or a label only (N-terminal biotin on a linker: ttds).
Design: key: below the threshold = too weak to quantify, mostly under pKd 3.1 to 4
In the case of B1, the pKd is reported as 5.29. With B2 the pKd was 5.27. B3 gave a pKd of 5.7. With B4 the pKd was 4.28.

These binders were tested against T9, LNX2_3, Q8N448 (assay: holdup assay). Details: plain residues with an end cap or a label only (N-terminal biotin on a linker: ttds).
Design: key: below the threshold = too weak to quantify, mostly under pKd 3.1 to 4
With B1 the pKd was “below the threshold”. With B2 the pKd was “below the threshold”. With B3 the pKd was “below the threshold”. With B4 the pKd was “below the threshold”.

These binders were tested against DLG2_3, Q15700 (assay: holdup assay). Details: plain residues with an end cap or a label only (N-terminal biotin on a linker: ttds).
Design: key: below the threshold = too weak to quantify, mostly under pKd 3.1 to 4
In the case of B1, the pKd is reported as “below the threshold”. For B2, the pKd was “below the threshold”. B3 gave a pKd of 4.71. For B4, the pKd was 3.77.

What follows are binders tested against GRIP2_5, Q9C0E4 (assay: holdup assay). Details: plain residues with an end cap or a label only (N-terminal biotin on a linker: ttds).
GRIP2_5, Q9C0E4, sequence (Q9C0E4 544-642): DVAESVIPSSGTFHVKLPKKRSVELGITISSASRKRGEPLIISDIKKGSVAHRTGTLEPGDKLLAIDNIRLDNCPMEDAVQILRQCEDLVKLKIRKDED
Design: key: below the threshold = too weak to quantify, mostly under pKd 3.1 to 4
B1 was tested, and the pKd was “below the threshold”. With B2 the pKd was “below the threshold”. With B3 the pKd was “below the threshold”. With B4 the pKd was “below the threshold”.

These binders were tested against T10, LNX2_2, Q8N448 (assay: holdup assay). Details: plain residues with an end cap or a label only (N-terminal biotin on a linker: ttds).
Design: key: below the threshold = too weak to quantify, mostly under pKd 3.1 to 4
For B1, the pKd was “below the threshold”. In the case of B2, the pKd is reported as “below the threshold”. B3 gave a pKd of 4.15. In the case of B4, the pKd is reported as “below the threshold”.

Each binder was assayed against GRIP2_3, Q9C0E4 (assay: holdup assay). Details: plain residues with an end cap or a label only (N-terminal biotin on a linker: ttds).
GRIP2_3, Q9C0E4, sequence (Q9C0E4 238-339): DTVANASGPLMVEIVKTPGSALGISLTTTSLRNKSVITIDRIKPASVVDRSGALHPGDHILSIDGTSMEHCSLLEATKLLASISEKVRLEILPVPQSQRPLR
Design: key: below the threshold = too weak to quantify, mostly under pKd 3.1 to 4
B1 was tested, and the pKd was “below the threshold”. For B2, the pKd was “below the threshold”. In the case of B3, the pKd is reported as “below the threshold”. For B4, the pKd was “below the threshold”.

These binders were tested against T11, APBA2_2, Q99767 (assay: holdup assay). Details: plain residues with an end cap or a label only (N-terminal biotin on a linker: ttds).
Design: key: below the threshold = too weak to quantify, mostly under pKd 3.1 to 4
With B1 the pKd was “below the threshold”. B2 was tested, and the pKd was “below the threshold”. With B3 the pKd was “below the threshold”. B4 was tested, and the pKd was “below the threshold”.
